According to the supplement of paper PMC10567573:

B1: ANKRD40 (parent)
chain: VRIQNPSLRENDFIEIELDRQELT

Variants of: B1
Test: protein stability index of a GFP-peptide fusion (GPS, HEK-293T) (PSI 1-6); higher = more stable
Settings: c terminus: a fixed tail appended
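Also: lentivirally expressed fusions sorted by FACS into six bins by GFP to DsRed ratio, PSI derived from sequencing read proportions per bin multiplied by bin number.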

Compared with ARIQNPSLRENDFIEIELDRQELT [V1A], CRIQNPSLRENDFIEIELDRQELT [V1C] is lower in protein stability index: 3.91 for the first, 3.51 for the second.

Going from DRIQNPSLRENDFIEIELDRQELT [V1D] to ERIQNPSLRENDFIEIELDRQELT [V1E], the protein stability index falls from 5.15 to 4.77.

Going from FRIQNPSLRENDFIEIELDRQELT [V1F] to GRIQNPSLRENDFIEIELDRQELT [V1G], the protein stability index rises from 2.58 to 4.27.

Going from HRIQNPSLRENDFIEIELDRQELT [V1H] to IRIQNPSLRENDFIEIELDRQELT [V1I], the protein stability index falls from 4.04 to 2.03.

First: KRIQNPSLRENDFIEIELDRQELT [V1K]
Second: LRIQNPSLRENDFIEIELDRQELT [V1L]
The protein stability index of the first is higher: 3.97 for the first, 2.71 for the second.

Compared with MRIQNPSLRENDFIEIELDRQELT [V1M], NRIQNPSLRENDFIEIELDRQELT [V1N] is higher in protein stability index: 2.79 for the first, 4.46 for the second.

Going from PRIQNPSLRENDFIEIELDRQELT [V1P] to QRIQNPSLRENDFIEIELDRQELT [V1Q], the protein stability index falls from 4.53 to 4.27.

First: RRIQNPSLRENDFIEIELDRQELT [V1R]
Second: SRIQNPSLRENDFIEIELDRQELT [V1S]
The protein stability index of the first is lower: 3.63 for the first, 4.3 for the second.

Going from TRIQNPSLRENDFIEIELDRQELT [V1T] to WRIQNPSLRENDFIEIELDRQELT [V1W], the protein stability index falls from 3.96 to 2.99.

Compared with YRIQNPSLRENDFIEIELDRQELT [V1Y], VAIQNPSLRENDFIEIELDRQELT [R2A] is lower in protein stability index: 3.41 for the first, 2.73 for the second.

Compared with VCIQNPSLRENDFIEIELDRQELT [R2C], VDIQNPSLRENDFIEIELDRQELT [R2D] is higher in protein stability index: 2.93 for the first, 4.69 for the second.

First: VEIQNPSLRENDFIEIELDRQELT [R2E]
Second: VFIQNPSLRENDFIEIELDRQELT [R2F]
The protein stability index of the first is higher: 4.16 for the first, 1.87 for the second.

Going from VGIQNPSLRENDFIEIELDRQELT [R2G] to VHIQNPSLRENDFIEIELDRQELT [R2H], the protein stability index falls from 4.28 to 3.13.

Going from VIIQNPSLRENDFIEIELDRQELT [R2I] to VKIQNPSLRENDFIEIELDRQELT [R2K], the protein stability index rises from 2.29 to 2.98.

Going from VLIQNPSLRENDFIEIELDRQELT [R2L] to VMIQNPSLRENDFIEIELDRQELT [R2M], the protein stability index rises from 2.24 to 3.05.

Compared with VNIQNPSLRENDFIEIELDRQELT [R2N], VPIQNPSLRENDFIEIELDRQELT [R2P] is higher in protein stability index: 4.11 for the first, 4.93 for the second.

First: VQIQNPSLRENDFIEIELDRQELT [R2Q]
Second: VSIQNPSLRENDFIEIELDRQELT [R2S]
The protein stability index of the first is higher: 4.3 for the first, 3.64 for the second.

Going from VTIQNPSLRENDFIEIELDRQELT [R2T] to VVIQNPSLRENDFIEIELDRQELT [R2V], the protein stability index falls from 3.5 to 2.46.

Compared with VWIQNPSLRENDFIEIELDRQELT [R2W], VYIQNPSLRENDFIEIELDRQELT [R2Y] is lower in protein stability index: 1.74 for the first, 1.73 for the second.

First: VRAQNPSLRENDFIEIELDRQELT [I3A]
Second: VRCQNPSLRENDFIEIELDRQELT [I3C]
The protein stability index of the first is higher: 4.17 for the first, 3.22 for the second.

Going from VRDQNPSLRENDFIEIELDRQELT [I3D] to VREQNPSLRENDFIEIELDRQELT [I3E], the protein stability index falls from 4.9 to 4.63.

Going from VRFQNPSLRENDFIEIELDRQELT [I3F] to VRGQNPSLRENDFIEIELDRQELT [I3G], the protein stability index rises from 2.44 to 4.05.

First: VRHQNPSLRENDFIEIELDRQELT [I3H]
Second: VRKQNPSLRENDFIEIELDRQELT [I3K]
The protein stability index of the first is higher: 4.17 for the first, 3.44 for the second.

Compared with VRLQNPSLRENDFIEIELDRQELT [I3L], VRMQNPSLRENDFIEIELDRQELT [I3M] is higher in protein stability index: 2.75 for the first, 3.61 for the second.

Compared with VRNQNPSLRENDFIEIELDRQELT [I3N], VRPQNPSLRENDFIEIELDRQELT [I3P] is lower in protein stability index: 4.28 for the first, 3.77 for the second.

First: VRQQNPSLRENDFIEIELDRQELT [I3Q]
Second: VRRQNPSLRENDFIEIELDRQELT [I3R]
The protein stability index of the first is lower: 3.71 for the first, 3.88 for the second.

First: VRSQNPSLRENDFIEIELDRQELT [I3S]
Second: VRTQNPSLRENDFIEIELDRQELT [I3T]
The protein stability index of the first is lower: 3.84 for the first, 3.9 for the second.

First: VRVQNPSLRENDFIEIELDRQELT [I3V]
Second: VRWQNPSLRENDFIEIELDRQELT [I3W]
The protein stability index of the first is higher: 3.06 for the first, 2.4 for the second.

First: VRYQNPSLRENDFIEIELDRQELT [I3Y]
Second: VRIANPSLRENDFIEIELDRQELT [Q4A]
The protein stability index of the first is higher: 3.11 for the first, 2.16 for the second.

Going from VRICNPSLRENDFIEIELDRQELT [Q4C] to VRIDNPSLRENDFIEIELDRQELT [Q4D], the protein stability index rises from 2.01 to 2.88.

First: VRIENPSLRENDFIEIELDRQELT [Q4E]
Second: VRIFNPSLRENDFIEIELDRQELT [Q4F]
The protein stability index of the first is higher: 2.31 for the first, 1.92 for the second.

First: VRIGNPSLRENDFIEIELDRQELT [Q4G]
Second: VRIHNPSLRENDFIEIELDRQELT [Q4H]
The protein stability index of the first is higher: 2.36 for the first, 2.11 for the second.

Going from VRIINPSLRENDFIEIELDRQELT [Q4I] to VRIKNPSLRENDFIEIELDRQELT [Q4K], the protein stability index falls from 2.24 to 2.09.

Compared with VRILNPSLRENDFIEIELDRQELT [Q4L], VRIMNPSLRENDFIEIELDRQELT [Q4M] is higher in protein stability index: 1.89 for the first, 2.04 for the second.

Compared with VRINNPSLRENDFIEIELDRQELT [Q4N], VRIPNPSLRENDFIEIELDRQELT [Q4P] is higher in protein stability index: 2.46 for the first, 2.63 for the second.

First: VRIRNPSLRENDFIEIELDRQELT [Q4R]
Second: VRISNPSLRENDFIEIELDRQELT [Q4S]
The protein stability index of the first is lower: 2.12 for the first, 2.29 for the second.

Going from VRITNPSLRENDFIEIELDRQELT [Q4T] to VRIVNPSLRENDFIEIELDRQELT [Q4V], the protein stability index falls from 2.27 to 2.01.

First: VRIWNPSLRENDFIEIELDRQELT [Q4W]
Second: VRIYNPSLRENDFIEIELDRQELT [Q4Y]
The protein stability index of the first is lower: 1.61 for the first, 1.98 for the second.

Going from VRIQAPSLRENDFIEIELDRQELT [N5A] to VRIQCPSLRENDFIEIELDRQELT [N5C], the protein stability index rises from 1.86 to 2.45.

Going from VRIQDPSLRENDFIEIELDRQELT [N5D] to VRIQEPSLRENDFIEIELDRQELT [N5E], the protein stability index rises from 2.48 to 3.08.

Compared with VRIQFPSLRENDFIEIELDRQELT [N5F], VRIQGPSLRENDFIEIELDRQELT [N5G] is lower in protein stability index: 2.28 for the first, 1.9 for the second.

Going from VRIQHPSLRENDFIEIELDRQELT [N5H] to VRIQIPSLRENDFIEIELDRQELT [N5I], the protein stability index rises from 1.73 to 2.43.

Compared with VRIQKPSLRENDFIEIELDRQELT [N5K], VRIQLPSLRENDFIEIELDRQELT [N5L] is higher in protein stability index: 2.74 for the first, 3.56 for the second.

Compared with VRIQMPSLRENDFIEIELDRQELT [N5M], VRIQPPSLRENDFIEIELDRQELT [N5P] is lower in protein stability index: 2.73 for the first, 2.08 for the second.

Going from VRIQQPSLRENDFIEIELDRQELT [N5Q] to VRIQRPSLRENDFIEIELDRQELT [N5R], the protein stability index rises from 2.07 to 2.29.

Compared with VRIQSPSLRENDFIEIELDRQELT [N5S], VRIQTPSLRENDFIEIELDRQELT [N5T] is higher in protein stability index: 1.74 for the first, 2.16 for the second.

Going from VRIQWPSLRENDFIEIELDRQELT [N5W] to VRIQYPSLRENDFIEIELDRQELT [N5Y], the protein stability index falls from 2.23 to 1.36.
